# According to IntAct's records for PubMed 32296183:
# B1: Transmembrane protein 43 (Homo sapiens), Q9BTV4 (parent)
# chain: MAANYSSTSTRREHVKVKTSSQPGFLERLSETSGGMFVGLMAFLLSFYLIFTNEGRALKTATSLAEGLSLVVSPDSIHSVAPENEGRLVHIIGALRTSKLLSDPNYGVHLPAVKLRRHVEMYQWVETEESREYTEDGQVKKETRYSYNTEWRSEIINSKNFDREIGHKNPSAMAVESFMATAPFVQIGRFFLSSGLIDKVDNFKSLSLSKLEDPHVDIIRRGDFFYHSENPKYPEVGDLRVSFSYAGLSGDDPDLGPAHVVTVIARQRGDQLVPFSTKSGDTLLLLHHGDFSAEEVFHRELRSNSMKTWGLRAAGWMAMFMGLNLMTRILYTLVDWFPVFRDLVNIGLKAFAFCVATSLTLLTVAAGWLFYRPLWALLIAGLALVPILVARTRVPAKKLE
# B2: Ceroid-lipofuscinosis neuronal protein 6 (Homo sapiens), Q9NWW5 (parent)
# chain: MEATRRRQHLGATGGPGAQLGASFLQARHGSVSADEAARTAPFHLDLWFYFTLQNWVLDFGRPIAMLVFPLEWFPLNKPSVGDYFHMAYNVITPFLLLKLIERSPRTLPRSITYVSIIIFIMGASIHLVGDSVNHRLLFSGYQHHLSVRENPIIKNLKPETLIDSFELLYYYDEYLGHCMWYIPFFLILFMYFSGCFTASKAESLIPGPALLLVAPSGLYYWYLVTEGQIFILFIFTFFAMLALVLHQKRKRLFLDSNGLFLFSSFALTLLLVALWVAWLWNDPVLRKKYPGVIYVPEPWAFYTLHVSSRH
# Variants of: B1
# Conditions: with ubp25_human USP25, Q9UHP3
# Sequence of ubp25_human USP25, Q9UHP3 (Q9UHP3 whole entry): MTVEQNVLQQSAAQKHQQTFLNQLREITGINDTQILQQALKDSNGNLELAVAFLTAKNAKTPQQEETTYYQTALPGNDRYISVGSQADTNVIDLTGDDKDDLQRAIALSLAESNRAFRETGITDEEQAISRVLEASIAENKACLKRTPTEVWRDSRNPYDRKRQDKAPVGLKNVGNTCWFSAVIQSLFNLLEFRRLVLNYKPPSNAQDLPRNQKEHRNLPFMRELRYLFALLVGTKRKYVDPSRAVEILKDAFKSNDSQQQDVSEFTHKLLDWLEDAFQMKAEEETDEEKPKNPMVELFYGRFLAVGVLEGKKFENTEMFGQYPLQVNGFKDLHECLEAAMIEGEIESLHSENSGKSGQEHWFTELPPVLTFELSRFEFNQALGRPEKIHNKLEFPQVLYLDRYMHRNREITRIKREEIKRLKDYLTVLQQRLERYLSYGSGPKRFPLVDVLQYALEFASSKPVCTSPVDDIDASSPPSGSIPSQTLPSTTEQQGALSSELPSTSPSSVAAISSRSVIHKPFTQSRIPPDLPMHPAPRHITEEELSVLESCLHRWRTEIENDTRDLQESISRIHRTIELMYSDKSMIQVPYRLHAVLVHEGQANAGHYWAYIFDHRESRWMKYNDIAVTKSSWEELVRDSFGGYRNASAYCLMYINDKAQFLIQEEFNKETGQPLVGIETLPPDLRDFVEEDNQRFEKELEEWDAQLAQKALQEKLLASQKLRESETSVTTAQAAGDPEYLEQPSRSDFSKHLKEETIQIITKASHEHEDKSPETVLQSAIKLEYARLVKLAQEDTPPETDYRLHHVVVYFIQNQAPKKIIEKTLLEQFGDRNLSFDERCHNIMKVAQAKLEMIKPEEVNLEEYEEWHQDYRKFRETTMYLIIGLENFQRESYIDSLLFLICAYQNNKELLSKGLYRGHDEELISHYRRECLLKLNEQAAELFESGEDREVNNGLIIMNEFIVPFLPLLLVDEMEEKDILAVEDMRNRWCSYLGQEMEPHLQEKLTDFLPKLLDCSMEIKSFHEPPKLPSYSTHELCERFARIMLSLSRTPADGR
row,Variant,effect of a mutation on the interaction
1,E142K,with no effect
2,I91V,with no effect
3,R28W,with no effect
4,E85K,with no effect

# Variants of: B1
# Conditions: with ar13b_human ARL13B
# Target sequence in this assay (Q3SXY8 whole entry): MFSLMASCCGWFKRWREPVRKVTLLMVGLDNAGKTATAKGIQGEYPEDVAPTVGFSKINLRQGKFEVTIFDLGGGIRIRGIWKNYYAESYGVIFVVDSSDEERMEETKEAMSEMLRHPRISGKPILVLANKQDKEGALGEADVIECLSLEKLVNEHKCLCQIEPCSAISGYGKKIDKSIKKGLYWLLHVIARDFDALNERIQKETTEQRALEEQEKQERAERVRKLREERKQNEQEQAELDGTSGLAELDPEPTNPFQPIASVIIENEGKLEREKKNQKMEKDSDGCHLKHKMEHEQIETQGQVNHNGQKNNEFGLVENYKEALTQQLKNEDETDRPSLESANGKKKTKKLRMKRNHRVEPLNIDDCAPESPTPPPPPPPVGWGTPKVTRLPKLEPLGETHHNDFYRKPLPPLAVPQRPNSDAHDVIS
row,Variant,effect of a mutation on the interaction
1,E142K,disrupting interaction strength
2,I91V,with no effect
3,R28W,disrupting interaction strength
4,E85K,disrupting interaction strength

# Variants of: B1
# Conditions: with FGA
row,Variant,effect of a mutation on the interaction
1,E142K,with no effect
2,I91V,with no effect
3,R28W,with no effect
4,E85K,with no effect

# Variants of: B1
# Conditions: with PCYT1B
row,Variant,effect of a mutation on the interaction
1,E142K,with no effect
2,I91V,with no effect
3,R28W,with no effect
4,E85K,with no effect

# Variants of: B1
# Conditions: with zch12_human ZCCHC12, Q6PEW1
# Sequence of zch12_human ZCCHC12, Q6PEW1 (Q6PEW1 whole entry): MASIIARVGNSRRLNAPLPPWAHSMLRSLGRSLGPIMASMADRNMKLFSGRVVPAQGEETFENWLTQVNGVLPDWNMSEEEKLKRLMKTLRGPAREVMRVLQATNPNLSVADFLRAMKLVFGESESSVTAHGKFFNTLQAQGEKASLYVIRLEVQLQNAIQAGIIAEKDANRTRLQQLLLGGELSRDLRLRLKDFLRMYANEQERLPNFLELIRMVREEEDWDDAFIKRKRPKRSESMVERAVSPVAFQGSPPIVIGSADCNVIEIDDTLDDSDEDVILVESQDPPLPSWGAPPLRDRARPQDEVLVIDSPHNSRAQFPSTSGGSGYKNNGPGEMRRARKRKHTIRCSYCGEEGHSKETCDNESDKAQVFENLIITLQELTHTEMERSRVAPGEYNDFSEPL
row,Variant,effect of a mutation on the interaction
1,E142K,with no effect
2,I91V,with no effect
3,R28W,with no effect
4,E85K,with no effect

# Variants of: B2
# Conditions: with stx1a_human STX1A
row,Variant,effect of a mutation on the interaction
1,R6T,with no effect

# Variants of: B2
# Conditions: with ar13b_human ARL13B
# Target sequence in this assay (Q3SXY8 whole entry): as the sequence (Q3SXY8 whole entry) above
row,Variant,effect of a mutation on the interaction
1,R6T,with no effect

# Variants of: B2
# Conditions: with cxa8_human GJA8, P48165
# Sequence of cxa8_human GJA8, P48165 (P48165 whole entry): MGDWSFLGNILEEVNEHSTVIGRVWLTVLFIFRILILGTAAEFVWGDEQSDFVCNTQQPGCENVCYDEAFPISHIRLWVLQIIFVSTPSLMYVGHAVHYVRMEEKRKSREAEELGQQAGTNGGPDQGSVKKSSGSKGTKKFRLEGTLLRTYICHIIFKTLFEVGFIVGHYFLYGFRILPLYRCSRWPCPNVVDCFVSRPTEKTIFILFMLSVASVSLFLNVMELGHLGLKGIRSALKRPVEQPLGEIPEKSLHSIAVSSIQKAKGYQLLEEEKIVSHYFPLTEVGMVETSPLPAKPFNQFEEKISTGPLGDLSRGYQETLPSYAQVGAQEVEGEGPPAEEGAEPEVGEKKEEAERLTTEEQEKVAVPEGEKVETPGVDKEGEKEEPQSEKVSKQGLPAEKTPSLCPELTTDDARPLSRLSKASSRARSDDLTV
row,Variant,effect of a mutation on the interaction
1,R6T,with no effect

# Variants of: B2
# Conditions: with cd79a_human CD79A
row,Variant,effect of a mutation on the interaction
1,R6T,with no effect

# Variants of: B2
# Conditions: with ki2l3_human KIR2DL3, P43628
# Sequence of ki2l3_human KIR2DL3, P43628 (P43628 whole entry): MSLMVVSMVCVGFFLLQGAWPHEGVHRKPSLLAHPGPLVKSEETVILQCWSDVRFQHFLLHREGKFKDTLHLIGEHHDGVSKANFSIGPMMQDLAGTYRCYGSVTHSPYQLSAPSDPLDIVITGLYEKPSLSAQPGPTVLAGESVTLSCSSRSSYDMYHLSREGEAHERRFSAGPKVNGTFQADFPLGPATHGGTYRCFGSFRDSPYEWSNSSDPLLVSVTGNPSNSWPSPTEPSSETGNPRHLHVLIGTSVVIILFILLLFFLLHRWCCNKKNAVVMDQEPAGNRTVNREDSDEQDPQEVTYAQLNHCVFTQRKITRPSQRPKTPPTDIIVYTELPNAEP
row,Variant,effect of a mutation on the interaction
1,R6T,with no effect

# Variants of: B2
# Conditions: with lrc25_human LRRC25, Q8N386
# Sequence of lrc25_human LRRC25, Q8N386 (Q8N386 whole entry): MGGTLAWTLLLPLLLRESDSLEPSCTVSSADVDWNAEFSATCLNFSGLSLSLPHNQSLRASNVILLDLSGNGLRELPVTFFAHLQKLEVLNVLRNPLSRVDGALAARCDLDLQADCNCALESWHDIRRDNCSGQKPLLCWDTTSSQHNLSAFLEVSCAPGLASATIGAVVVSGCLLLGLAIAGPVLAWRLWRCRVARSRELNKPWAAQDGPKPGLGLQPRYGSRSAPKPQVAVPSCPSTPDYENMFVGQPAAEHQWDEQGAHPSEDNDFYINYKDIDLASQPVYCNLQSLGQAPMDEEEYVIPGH
row,Variant,effect of a mutation on the interaction
1,R6T,with no effect

# Variants of: B2
# Conditions: with tm139_human TMEM139, Q8IV31
# Sequence of tm139_human TMEM139, Q8IV31 (Q8IV31 whole entry): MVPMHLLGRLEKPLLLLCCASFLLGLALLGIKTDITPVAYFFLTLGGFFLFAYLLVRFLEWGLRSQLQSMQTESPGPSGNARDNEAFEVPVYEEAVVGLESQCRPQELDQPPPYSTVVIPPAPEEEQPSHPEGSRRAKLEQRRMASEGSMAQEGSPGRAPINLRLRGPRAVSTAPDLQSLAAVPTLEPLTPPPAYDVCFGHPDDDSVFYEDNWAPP
row,Variant,effect of a mutation on the interaction
1,R6T,with no effect
